Results taken from the supplement of paper PMC9732359.
± gives the uncertainty stated by the source.

Test: protein stability index of a GFP-peptide fusion (yeast GPS) (PSI 1-4); higher = more stable; sorted into four equal gates, so the index is relative within each strain
How it was run: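 Sequencing reads from sorted gates were used to score each peptide. The library consisted of tiled 17-residue yeast protein peptides fused downstream of GFP on a Cherry-expressing plasmid, pooled and carried in yeast. Mid-log cultures in leucine-free medium were split into four equal gates by GFP/Cherry ratio, and each gate's plasmids were PCR-amplified and Illumina-sequenced. The protein stability index adds up, over all gates, the read frequency multiplied by the gate number.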

Sequence | protein stability index (pdr5∆) | protein stability index (doa10∆) | protein stability index (san1∆) | protein stability index (ubr1∆)
INQKALRKIQALRDVKN [GAL11] | 1.26 ± 0.25 |  |  | 
FSLLVKAEIPPEYAKVG [SIN4] | 2.45 ± 0.045 | 2.54 ± 0.063 | 2.52 ± 0.057 | 2.72 ± 0.036
FRNNKNDNYSSDMENDN [REC8] | 3.15 ± 0.23 | 3.44 ± 0.18 | 3.2 ± 0.17 | 2.73 ± 0.11
VATNIVNEDPIFHPMIH [YML103C/NUP188] | 2.63 ± 0.045 | 2.53 ± 0.046 | 2.44 ± 0.045 | 2.58 ± 0.038
LLHSKPSLLLQKDQDGR [NAS6] | 3.33 ± 0.13 | 3.22 ± 0.22 |  | 
KVLRKFRVQSQSNYGIY [NUT1] | 2.29 ± 0.071 | 1.85 ± 0.053 | 1.34 ± 0.11 | 2.3 ± 0.14
TSILELGQLYVTMGAKD [RPN6] | 2.85 ± 0.083 | 3.23 ± 0.11 | 2.96 ± 0.071 | 2.96 ± 0.059
IDFAPTSPFGGARPGRV [RPS9A] | 2.53 ± 0.074 | 2.82 ± 0.072 | 2.62 ± 0.074 | 2.74 ± 0.05
TEQFCATLNYIDKNHGF [SRB7] | 2.99 ± 0.061 | 2.26 ± 0.055 | 3.2 ± 0.057 | 2.47 ± 0.052
ETQEIKENDTVMNTKLL [ESC2] | 3 ± 0.063 | 2.85 ± 0.086 | 2.88 ± 0.1 | 3.18 ± 0.055
KDVKARIAAGDGDDDDE [QCR9] | 2.29 ± 0.19 | 1.83 ± 0.13 | 2.12 ± 0.074 | 2.24 ± 0.12
VTEMSNNANVLGGEIND [BRR2] | 3.18 ± 0.12 | 3.18 ± 0.11 | 3.51 ± 0.085 | 3.15 ± 0.064
KDGSNPRTLIGHRATVT [RPN14] | 3.31 ± 0.26 |  | 3.07 ± 0.14 | 
KIYKLENGERKLYDAKR [YMR129W/POM152] | 3.17 ± 0.077 | 3.13 ± 0.06 | 3.21 ± 0.065 | 3.29 ± 0.06
EKGENPSCVYNLIGVIT [UBP6] | 2.79 ± 0.093 | 2.64 ± 0.072 | 3.07 ± 0.081 | 3.06 ± 0.1
LAQKKAHLAEIQLNGGS [RPL3] |  |  |  | 2.85 ± 0.12
KPSSPPDVKSLVQLSTM [SIR4] | 3.26 ± 0.07 | 3.41 ± 0.11 | 3.12 ± 0.088 | 3.26 ± 0.06
VLNCLRTMYFILDGQDV [YJR042W/NUP85] | 1.42 ± 0.091 | 1.87 ± 0.083 | 1.31 ± 0.1 | 1.34 ± 0.078
DITSDQLLQRLNDMNTE [SMC3] |  | 3.46 ± 0.16 | 3.24 ± 0.13 | 3.17 ± 0.12
ENFAKGEHISAIVPGQS [SWP82] | 3.18 ± 0.085 | 3.01 ± 0.064 | 2.87 ± 0.06 | 3.05 ± 0.055
AMFFGNYGSSLQWHAMI [AAR2] | 1.8 ± 0.085 | 2.41 ± 0.093 | 1.44 ± 0.12 | 2.15 ± 0.071
AKVNRPAKIVNFEKPKN [RPN5] | 3.12 ± 0.069 | 2.93 ± 0.069 | 2.89 ± 0.056 | 3.12 ± 0.054
TILSSKLSNIWMQRQLI [SRB2] | 1.96 ± 0.1 | 2.33 ± 0.11 | 2.76 ± 0.1 | 2.82 ± 0.051
IINKVLDYQETYVEELF [YJL039C/NUP192] | 2.87 ± 0.15 | 2.2 ± 0.1 | 2.76 ± 0.12 | 2.6 ± 0.075
IVEQDKSMELFYDIRSL [YJL039C/NUP192] | 2.93 ± 0.11 | 2.34 ± 0.13 | 2.66 ± 0.086 | 3.16 ± 0.082
PHGFPSRMTVGKMIELI [RET1] | 2.56 ± 0.11 | 2.54 ± 0.11 | 2.77 ± 0.084 | 2.46 ± 0.092
TSDNLLTITKAAGANVD [RPP1B] | 2.13 ± 0.056 | 1.97 ± 0.066 | 3.05 ± 0.08 | 2.26 ± 0.082

Sequence | protein stability index (pdr5∆) | protein stability index (doa10∆) | protein stability index (san1∆) | protein stability index (ubr1∆)
LRIVKPTVSLTINLDRF [RPC82] | 2.29 ± 0.054 | 2.29 ± 0.068 | 2.46 ± 0.063 | 2.43 ± 0.11
KRINKFLDSVHKQGSSY [POP7] | 2.52 ± 0.033 | 2.61 ± 0.04 | 2.65 ± 0.045 | 2.37 ± 0.031
DCLDKLLNDECTESTRE [SNF2] | 3.4 ± 0.13 | 3.5 ± 0.14 | 3.48 ± 0.091 | 3.41 ± 0.17
LPGTEKGRKTNKYANND [CSL4] | 3.5 ± 0.13 | 3.22 ± 0.12 | 3.2 ± 0.072 | 3.41 ± 0.19
ESDLYKLKECPFDMGGY [RPB2] | 3.25 ± 0.087 | 3.13 ± 0.076 | 3.22 ± 0.068 | 3.34 ± 0.036
RASDLRMTIRTRGRSAT [RRP43] | 2.36 ± 0.093 | 2.93 ± 0.1 | 2.22 ± 0.17 | 2.33 ± 0.11
ILNHIGQLTGIYRYKYK [PRP8] | 1.47 ± 0.075 | 1.39 ± 0.072 | 1.26 ± 0.11 | 2.03 ± 0.068
IQRFFALHYLVPFIIAA [COB] | 1.17 ± 0.063 | 1.39 ± 0.052 | 1.11 ± 0.15 | 1.09 ± 0.036
GEIEIKPNEEEELGFWD [RPN13] | 3.19 ± 0.097 | 3.15 ± 0.13 | 3.25 ± 0.074 | 3.24 ± 0.094
QQQQQQNNSTGSSSIIY [SSN2] | 2.99 ± 0.062 | 2.65 ± 0.07 | 2.69 ± 0.091 | 2.79 ± 0.065
GVIALGQFVTLGCTLVT [RMP1] | 1.36 ± 0.15 | 2.65 ± 0.24 | 1.18 ± 0.15 | 1.5 ± 0.12
AKNEDDPAHSLNYTVIN [AAR2] | 3.05 ± 0.18 | 2.93 ± 0.2 | 2.68 ± 0.11 | 2.43 ± 0.18
AGTQSSKFSKQQAKGAF [RPL24A] | 3.27 ± 0.062 | 3.2 ± 0.063 | 3.27 ± 0.035 | 3.17 ± 0.049
NNVAYGKKRFRVVTVDG [SMC4] | 2.1 ± 0.13 | 1.93 ± 0.11 | 1.78 ± 0.13 | 1.83 ± 0.069
LQLAPGAHLGRFVIWTE [RPL4A] | 2.98 ± 0.22 | 3.62 ± 0.21 | 3.18 ± 0.099 | 3.27 ± 0.08
ALSLHREILCYSKDAKE [FAS2] | 1.76 ± 0.027 | 1.78 ± 0.028 | 1.85 ± 0.044 | 1.82 ± 0.021
FLRPTYPDLCSIYDKWT [RPN1] | 2.82 ± 0.059 | 2.83 ± 0.064 | 2.35 ± 0.069 | 2.47 ± 0.046
NCPHSDSTQLLETILEE [SSN2] | 3.1 ± 0.088 | 2.81 ± 0.1 | 3.11 ± 0.13 | 2.94 ± 0.063
DNLLEMSDHSLDKLNCA [RRP6] | 3 ± 0.068 | 3.28 ± 0.099 | 3.22 ± 0.1 | 3.25 ± 0.049
VNNPQEETSHLLTVTPG [RPN10] | 2.84 ± 0.08 | 2.62 ± 0.13 | 2.99 ± 0.14 | 2.86 ± 0.066
AHVFVGTCNGDITTSIM [RPN1] | 2.78 ± 0.044 | 2.72 ± 0.048 | 2.63 ± 0.047 | 2.62 ± 0.053
MRSKLEKLTLVTLSEIY [CSN9] | 1.79 ± 0.035 | 1.56 ± 0.05 | 1.79 ± 0.07 | 1.79 ± 0.051
VSSSLYERRFGPYFVGP [PUP3] | 2.88 ± 0.16 | 2.79 ± 0.13 | 2.62 ± 0.13 | 2.95 ± 0.095
LAPSKHQPITSEQKMKE [SIR4] | 2.37 ± 0.098 | 2.31 ± 0.077 | 2.61 ± 0.1 | 2.29 ± 0.24
HRVAENWRKQKGIDSVV [RPL32] | 2.61 ± 0.17 | 2.55 ± 0.099 |  | 2.25 ± 0.18
NEAEQVYLSLLDKDSSQ [RPN6] | 3.29 ± 0.076 | 3.03 ± 0.2 |  | 3.45 ± 0.22
CLQDALDAIDDFIQLKQ [SSN2] | 2.6 ± 0.056 | 2.73 ± 0.081 | 2.2 ± 0.063 | 2.92 ± 0.06
